Data from article PMC12643504.

What was measured:
[1] = molecular target: PKD2 R803X Taiwan founder truncation variant (human) (UniProt Q13563); experiment: SEC; channel proteins solubilised in DDM, Strep-Tactin affinity purified, reconstituted in amphipol A8-35, MBP cleaved by TEV; SEC at 4°C on Superdex 200 10/300 GL in 25 mM HEPES pH 7.4, 150 mM NaCl, 1 mM TCEP, 1 mM CaCl2; FSEC (Superose 6 5/150 GL, tryptophan fluorescence) after heating
[2] = molecular target: Full-length PKD2 (WT) (human) (UniProt Q13563); experiment: as above

stoichiometry N [1] | stoichiometry N [2] | Substance
4 | – | PKD2 R803X Taiwan founder truncation variant (from UniProt Q13563 1-802) (domain or fragment)
– | 4 | Full-length PKD2 (WT) (from UniProt Q13563 1-968) (natural protein)
